Experiment [1] has as its target Protein G (Dynabeads Protein G, Thermo Fisher Scientific) (UniProt P19909). In words: immunoprecipitation with Dynabeads Protein G after storage in rat plasma at 37 C, 0 day point.
The target is the same in experiment [2]. Kind of experiment: immunoprecipitation with Dynabeads Protein G after storage in rat plasma at 37 C, 1 day point.
Experiment [3] has the same target. Kind of experiment: immunoprecipitation with Dynabeads Protein G after storage in rat plasma at 37 C, 7 day point.
Experiment [4] has the same target. In words: immunoprecipitation with Dynabeads Protein G after storage in human plasma at 37 C, 1 day point.
Experiment [5] has the same target. In words: immunoprecipitation with Dynabeads Protein G after storage in human plasma at 37 C, 7 day point.
For experiment [6] the target is unchanged. Kind of experiment: immunoprecipitation with Dynabeads Protein G after storage in mouse plasma at 37 C, 0 day point.
Experiment [7] shares this target. In words: immunoprecipitation with Dynabeads Protein G after storage in mouse plasma at 37 C, 1 day point.
For experiment [8] the target is unchanged. In words: immunoprecipitation with Dynabeads Protein G after storage in mouse plasma at 37 C, 7 day point.
The target is the same in experiment [9]. In words: immunoprecipitation with Dynabeads Protein G after storage in human plasma at 37 C, 14 day point.
For experiment [10] the target is unchanged. In words: immunoprecipitation with Dynabeads Protein G after storage in monkey plasma at 37 C, 0 day point.
Experiment [11] has the same target. In words: immunoprecipitation with Dynabeads Protein G after storage in monkey plasma at 37 C, 1 day point.
Experiment [12] has the same target. In words: immunoprecipitation with Dynabeads Protein G after storage in monkey plasma at 37 C, 7 day point.
Experiment [13] has the same target. Kind of experiment: immunoprecipitation with Dynabeads Protein G after storage in human plasma at 37 C, 0 day point; share of radioactivity bound to Protein G.

From patent publication US20240207464A1 come the findings set out here.

As for “radioconjugate (Example 1): conjugate with rituximab by using 225Ac-labeled DOTAGA-DBCO (antibody)”, the recovery rate (%) by beads came to 97.4% in [1]; 94.8% in [2]; 90.4% in experiment [3]; 90.5% in experiment [4]; 81% in experiment [5]; 98.1% in [6]. Moreover, the recovery rate (%) by beads in [7] stood at 95%; in experiment [8], 93.1%; in experiment [9] it was 76.4%; in experiment [10], 92.9%; in experiment [11] it was 90.4%; in [12] it was 90.5%. Besides, the recovery rate (%) by beads in experiment [13] worked out at 95%.
